Consider ten molecules from patent US20250277029A1, “CANNABINOID TYPE 1 RECEPTOR BINDING PROTEINS AND USES THEREOF” (AMGEN INC., priority 2022, published 2025).

Substitutions are numbered along the chain they refer to.

Sequences and labels used below:
T1: XCR1-SMALP
T1 sequence (P46094 whole entry, species assumed, looked up): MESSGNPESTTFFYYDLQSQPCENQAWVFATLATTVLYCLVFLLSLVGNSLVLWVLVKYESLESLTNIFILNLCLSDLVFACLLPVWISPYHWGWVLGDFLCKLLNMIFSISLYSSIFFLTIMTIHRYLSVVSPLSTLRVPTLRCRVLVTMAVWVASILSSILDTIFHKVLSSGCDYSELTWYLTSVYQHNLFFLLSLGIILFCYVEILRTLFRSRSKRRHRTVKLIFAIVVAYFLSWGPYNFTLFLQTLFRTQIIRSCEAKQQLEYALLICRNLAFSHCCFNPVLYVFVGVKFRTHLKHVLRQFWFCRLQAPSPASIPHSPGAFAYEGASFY

T2: XCR1-SMALP-GFP
T2 sequence (P46094 whole entry, species assumed, looked up): T1 sequence (P46094 whole entry, species assumed, looked up)

B1: LIBC673952-1 (Fab on yeast) (Fab, V domains shown)
VH: QVQLQESGPGLVKPSQTLSLTCTVSGGSIRRGGDYWSWIRQHPGKGLEWIGHVYYTGQTTYNPSFRGRVTISVNTYKNQFSLKLSSVTAADTAVYYCARDYDILTGYSYYYYGLDVWGQGTTVTVSS
VL: DIVMTQSPLSLPVTPGEPASISCRSSQSLLHRSGYNYLDWYLQKPGQSPQLLIYQGSNRASGVPDRFSGSGSGTDFTLKISRVEAEDVGVYYCRQARALPRTFGQGTKVEIKR
B2: LIBC674200-1 (Fab on yeast) (Fab, V domains shown)
VH: QVQLQESGPGLVKPSQTLSLTCTVSGGSIRRGGDYWSWIRQHPGKGLEWIGHVYYTGQTAYNPNFRNRVRISVNTYKNQFSLKLSSVTAADTAVYYCARGYDVSGYSYYYYGMDVWGQGTTVTVSS
VL: B1 VL with Q55L, D65G, R94M, A96S, R97L, A98Q, L99T
B3: LIBC674229-1 (Fab on yeast) (Fab, V domains shown)
VH: B2 VH with V53I, Y55Q, A60K, N64S, R66K, N67G
VL: B1 VL with R94M, A96S, R97L, A98Q, L99T
B4: LIBC674090-1 (Fab on yeast) (Fab, V domains shown)
VH: B2 VH with V53I, T56A, Q58S, N67G, V103T, M113L
VL: B1 VL with R94M, A96S, R97L, A98Q, L99T
B5: LIBC680562-1 (yeast-displayed Fab) (Fab, V domains shown)
VH: QVQLQESGPGLVKPSQTLSLTCTVSGGSIRRGGDYWAWIRQHPGKGLEWIGHIYQTGSTNYNPRFKGRATISVNTYKNQFSLKLSSVTAADTAVYYCARNYDTLTGYSYYYYGMDVWGQGTTVTVSS
VL: DIQMTQSPSSLSASVGDRVTITCRASQSISSYLNWYQQKPGKAPKLLIYSARRLSSGVPSRFSGSGSGTDFTLTISSLQPEDFATYYCQQYAKSPITFGGGTKVEIKR
B6: LIBC680574-1 (yeast-displayed Fab) (Fab, V domains shown)
VH: B5 VH with I53V, Q55Y, N60K, R64S, G67D
VL: B5 VL with S50G, S55G, A92S, K93S, S94L, I96V
B7: LIBC681594-1 (yeast-displayed Fab) (Fab, V domains shown)
VH: B5 VH
VL: B5 VL with S50K, R53K, Y91F, A92G, K93S, S94M, I96L
B8: LIBC680800-1 (yeast-displayed Fab) (Fab, V domains shown)
VH: B5 VH
VL: B5 VL with R53A, A92R, S94F, I96L
B9: LIBC681593-1 (yeast-displayed Fab) (Fab, V domains shown)
VH: B5 VH
VL: B5 VL with S50N, S55G, A92R, K93S, I96V
B10: LIBC680812-1 (yeast-displayed Fab) (Fab, V domains shown)
VH: B5 VH with A37G, I53V, N60K, R64S, G67D
VL: B5 VL with A92R, K93S, S94Y

The first experiment addresses T1, XCR1-SMALP. Briefly: flow cytometry, yeast-displayed Fab, 50 nM XCR1 SMALP. On the technique in general: Flow cytometry measures light scatter and fluorescence of single cells or particles in a stream.
On to B1, for which the relative binding fold change compared to LIBC523797-1(Fab) was 0.59 fold.

Turning to B2, the relative binding fold change compared to LIBC523797-1(Fab) was 0.79 fold.

In the case of B3, the relative binding fold change compared to LIBC523797-1(Fab) is 0.8 fold.

For B4, the relative binding fold change compared to LIBC523797-1(Fab) came out at 0.74 fold.

Another experiment has as its target T2, XCR1-SMALP-GFP. Briefly: flow cytometry, yeast-displayed Fab, 25 nM XCR1-SMALP-GFP, after background subtraction.
For the molecule B5, the Relative binding fold change compared to LIBC528116 (Fab) amounted to 0.64 fold.

On to B6, for which the Relative binding fold change compared to LIBC528116 (Fab) was determined as 0.56 fold.

On to B7, for which the Relative binding fold change compared to LIBC528116 (Fab) came out at 1.04 fold.

In the case of B8, the Relative binding fold change compared to LIBC528116 (Fab) was determined as 0.47 fold.

On to B9, for which the Relative binding fold change compared to LIBC528116 (Fab) is 0.72 fold.

As to B10, the Relative binding fold change compared to LIBC528116 (Fab) came out at 0.59 fold.
